12 molecules from patent US20190153092A1 (NBE THERAPEUTICS, published 2019) can be followed below.

Positions count from the first letter of the chain named.

To fix the notation:
B1: hu2A2-D23, humanized from 2A2 (antibody, human IgG1, V domains shown)
VH: QVQLVESGAEVKKPGASVKLSCKASGYTFSDYEMHWVRQAPGQRLEWMGAIDPETGGTAYNQKFKGRVTITVDKSASTAYMELSSLRSEDTAVYYCTGYYDYDSFTYWGPGTTVTVSS
VL: DIVMTQSPSTLSASVGDRVTITCKASQNVDAAVAWYQQKPGTAPKLLIYSASNRYTGVPSRFSGSGSGTEFTLTISSLQSEDLADYFCQQYDIYPYTFGQGTKLEIK
notes: Human IgG1/kappa, expressed in 293T cells and purified; also called msD23-19
B2: hu2A2-D16, humanized from 2A2 (antibody, human IgG1, V domains shown)
VH: EVQLVESGAEVKKPGASVKVSCKASGYTFSDYEMHWVRQAPGQGLEWVGAIDPETGGTAYNQKFKGRVTMTRDTSTSTVYMELSSLRSEDTAVYYCTGYYDYDSFTYWGQGTLVTVSS
VL: B1 VL with V3Q, T10S, T42K, V58I, S60T, E70D, L104V
notes: Human IgG1/kappa, expressed in 293T cells and purified; also called msD16-7
B3: hu2A2b-Q11, humanized from 2A2 (antibody, human IgG1, V domains shown)
VH: B2 VH with E6Q, V48L, R72G, T76I, V79A, S85R, R87T, E89D, T115S
VL: B1 VL with V3Q, T10S, A13T, T42K, P59A, E70D, L73F
notes: also called hu2A2-Q11; msQ11-3
B4: chimeric mAb 2A2 (mouse variable regions, human IgG1/kappa constant regions) (antibody, V domains shown)
VH: QVQLQQSGAELVRPGASVTLSCKASGYTFSDYEMHWVIQTPVHGLEWIGAIDPETGGTAYNQKFKGKAILTADKSSSTAYMELRSLTSEDSAVYYCTGYYDYDSFTYWGQGTLVTVSA
VL: DIVMTQSQKIMSTTVGDRVSITCKASQNVDAAVAWYQQKPGQSPKLLIYSASNRYTGVPDRFTGSGSGTDFTLTISNMQSEDLADYFCQQYDIYPYTFGGGTKLEIK
notes: also called chim 2A2; parental mAb 2A2
B5: rbQ11, humanized from R11 (antibody, human IgG1, V domains shown)
VH: EVQLVQSGGGLVQPGGSLRLSCAASGSDINDYPISWVRQAPGKGLEWVSFINSGGSTWYASWVKGRFTISRDNAKNSLYLQMNSLRDDDTATYFCARGYSTYYGDFNIWGQGTLVTVSS
VL: DIVMTQSPSSLSASVGDRVTITCQASQSIDSNLAWFQQKPGKAPKSLIYRASNLASGVPSKFSGSGSGTDFTLTISSLQREDAATYYCLGGVGNVSYRTSFGGGTKVEIK
notes: Human IgG1/kappa, expressed in 293T cells and purified; also called huR11-Q11; rbQ11-32
B6: rbD4, humanized from R11 (antibody, human IgG1, V domains shown)
VH: EVQLVESGGGLVQPGRSLRLSCTASGSDINDYPISWFRQAPGKGLEWVGFINSGGSTWYASWVKGRFTISRDDSKSIAYLQMNSLKTDDTATYFCARGYSTYYGDFNIWGQGTTVTVSS
VL: B5 VL with I2V, K45N, S46L, K61R, D70E, G103Q
notes: Human IgG1/kappa, expressed in 293T cells and purified; also called huR11-D4; rbD4-32
B7: rbQ12, humanized from R11 (antibody, human IgG1, V domains shown)
VH: B5 VH with Q6E, D87A, L114M
VL: B5 VL with D1E, K45N, S46L, K61R, D70E, G103Q
notes: Human IgG1/kappa, expressed in 293T cells and purified; also called huR11-Q12; rbQ12-40
B8: huR12_4, humanized from R12 (antibody, human IgG1, V domains shown)
VH: QVQLVESGGELVQPGGSLTLSCKASGFDFSAYYMSWVRQAPGKGLEWIATIYPSSGKTYYAASVQGRFTISADNAKNTVYLQMNSLTAADTATYFCARDSYADDGALFNIWGKGTLVTVSS
VL: QLVLTQSPSVSAALGSSAKITCTLSSAHKTDTIDWYQQLAGQAPRYLMYVQSDGSYEKRSGVPDRFSGSASGADRYLAISRVQADDEADYYCGADYIGGYVFGGGTQLTVLG
notes: Human IgG1 with lambda light chain
B9: huR12_7, humanized from R12 (antibody, human IgG1, V domains shown)
VH: B8 VH with Y80S
VL: B8 VL with A70S, A78I, R81S
notes: as for B8
B10: Chimeric mAb R12 (rabbit variable regions, human IgG1/lambda constant regions) (antibody, V domains shown)
VH: QEQLVESGGRLVTPGGSLTLSCKASGFDFSAYYMSWVRQAPGKGLEWIATIYPSSGKTYYATWVNGRFTISSDNAQNTVDLQMNSLTAADRATYFCARDSYADDGALFNIWGPGTLVTISS
VL: ELVLTQSPSVSAALGSPAKITCTLSSAHKTDTIDWYQQLQGEAPRYLMQVQSDGSYTKRPGVPDRFSGSSSGADRYLIIPSVQADDEADYYCGADYIGGYVFGGGTQLTVT
notes: Full-length IgG1 with human gamma 1 and lambda constant regions; also called parental mAb R12
B11: huR12_11, humanized from R12 (antibody, human IgG1, V domains shown)
VH: B8 VH with E10A, K113Q
VL: B10 VL with E1Q, P17S, Q40A, E42Q, Q49Y, T57E, P60S, P80S, T111G
notes: as for B8
B12: huR12_16, humanized from R12 (antibody, human IgG1, V domains shown)
VH: B8 VH with Q13T, T50S, S63A, K113Q
VL: B10 VL with E1Q, P17S, Q40A, E42Q, Q49Y, T57E, P60S, P80S, T111G
notes: as for B8

T1 sequence (Q01973 other isoform, or with tags, fused parts or gaps): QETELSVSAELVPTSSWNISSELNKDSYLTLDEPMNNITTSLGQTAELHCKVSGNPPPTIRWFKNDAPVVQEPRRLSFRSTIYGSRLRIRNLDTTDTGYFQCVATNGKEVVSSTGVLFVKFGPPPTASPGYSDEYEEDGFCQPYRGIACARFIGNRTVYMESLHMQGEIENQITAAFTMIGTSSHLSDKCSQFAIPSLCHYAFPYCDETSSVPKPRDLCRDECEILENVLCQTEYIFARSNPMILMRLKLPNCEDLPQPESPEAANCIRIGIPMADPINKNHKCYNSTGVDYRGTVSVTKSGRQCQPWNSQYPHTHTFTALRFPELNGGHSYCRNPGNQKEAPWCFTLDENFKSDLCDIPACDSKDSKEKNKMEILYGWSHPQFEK

One assay concerns the target T1, StrepII-tagged ROR1-extracellular domain (human) (human, UniProt Q01973 30-406).
T1 construct: extracellular domain; also called ROR1-strep; soluble ROR1-strep
Briefly: SPR (Biacore T200), purified mAb captured by anti-human Fc, ROR1-strep 2.5-20 nM as analyte, 1:1 model, 25 C. On the procedure:
ROR1-strep was diluted in running buffer using 2-fold serial dilutions ranging from 20 nM to 2.5 nM. Association was measured at a flow of 30 μl/min for 120 s, and dissociation was followed for 200 s. Curves were fitted using 30 s dissociation due to upper plateau formation at later timepoints. Capture levels ranged from 29.1 RU to 57.7 RU.
In general terms: Surface plasmon resonance follows binding to a sensor surface in real time, without labels.
For B1, the Kd (in general, a measure of binding affinity in units of concentration) came to 8 nM; the dissociation rate constant (koff) – broadly, the rate constant with which the complex falls apart – was determined as 0.0138 s⁻¹; the kon (in general, the second-order rate constant of association) worked out at 1.72e+06 M⁻¹ s⁻¹.
On to B2, for which the Kd is 10.9 nM, the koff was 0.0189 s⁻¹ and the kon is 1.73e+06 M⁻¹ s⁻¹.
B3 showed an equilibrium dissociation constant (Kd) of 9.9 nM, an off-rate (koff) of 0.0173 s⁻¹ and a kon of 1.75e+06 M⁻¹ s⁻¹.
For B4, in that order: 5.7 nM, 0.00968 s⁻¹ and 1.69e+06 M⁻¹ s⁻¹.
For B5, in that order: 6.1 nM, 0.00498 s⁻¹ and 821000 M⁻¹ s⁻¹.
For B6, in that order: 9 nM, 0.0071 s⁻¹ and 785000 M⁻¹ s⁻¹.
B7 registered a dissociation constant Kd of 14.2 nM, an off-rate constant (koff) of 0.0104 s⁻¹ and a kon of 733000 M⁻¹ s⁻¹.

The next assay concerns the target T1, StrepII-tagged ROR1-extracellular …. The assay can be described thus: SPR (Biacore T200), IgG from HEK293T supernatant captured by anti-human Fc, ROR1-strep 2.5-20 nM as analyte, 1:1 model, 25 C. On the procedure:
For initial determination of huR12 clone affinities and parental R12 using transient HEK293T supernatants, IgG expression vectors were transiently transfected into 293T cells and IgG titers in supernatants were quantified by ELISA. For SPR, supernatants were diluted to 1 μg/ml IgG with running buffer (HBS-EP+ pH 7.4 (10 mM HEPES, 150 mM NaCl, 3 mM EDTA, 0.05% Tween 20)) and captured for 200 s with a flow of 30 μl/min. ROR1-strep was diluted in running buffer using 2-fold serial dilutions ranging from 20 nM to 2.5 nM. Association was measured at a flow of 30 μl/min for 120 s, and dissociation was followed for 1000 s. Capture levels ranged from 26.9 RU to 54.1 RU.
As to B8, binding was characterised by a dissociation constant (Kd) of 0.091 nM, the koff is 9.93e-05 s⁻¹ and the association rate constant (kon) amounted to 1.09e+06 M⁻¹ s⁻¹.
The like results for B9 were, in that order, 0.11 nM, 0.000116 s⁻¹ and 1.05e+06 M⁻¹ s⁻¹.
Consider B10, for which the affinity, expressed as Kd, was 1.03 nM; the koff was determined as 0.000361 s⁻¹; the kon came to 349000 M⁻¹ s⁻¹.
The like results for B11 were, in that order, 0.084 nM, 9.65e-05 s⁻¹ and 1.15e+06 M⁻¹ s⁻¹.
For B12, in that order: 0.092 nM, 8.79e-05 s⁻¹ and 960000 M⁻¹ s⁻¹.

The target is the same in the next assay. The assay can be described thus: SPR (Biacore T200), purified mAb captured by goat anti-human Fc-gamma IgG, ROR1-strep 1.25 to 20 nM, 120 s association, 1000 s dissociation, 1:1 model. The protocol: FIG. 13: Comparison of affinities of humanized and parental R12 mAbs determined by SPR using purified antibody. The three humanized R12 mAbs indicated were expressed at large scale in HEK293T cells, purified by Protein A affinity chromatography and subjected to SPR analysis for determination of affinity towards soluble ROR1-strep. Antibodies were captured using a goat α-human Fc-gamma-specific IgG. ROR1-strep was diluted in running buffer using 2-fold serial dilutions ranging from 1.25 nM to 20 nM. Association was measured 120 s, and dissociation was followed for 1000 s. Capture levels ranged from 26.9 RU to 54.1 RU.
Molecule B8 yielded a Kd of 0.0571 nM.
On the same count and under the same terms, then B9, with 0.051 nM; and B10, with 0.427 nM; and B11, with 0.0616 nM.
